Patent publication US6355785 (Aronex Pharmaceuticals, Inc.)

Experiments:
[1] = target: T1, HIV-1 reverse transcriptase (Human immunodeficiency virus 1, UniProt P03366;P03366 P03366:600-1159,P03366:600-1039); experiment: inhibition; printed as ID50
[2] = target: T1, HIV-1 reverse transcriptase; experiment: inhibition
[3] = target: T2, HIV-1 integrase wild-type (IN1-288) (Human immunodeficiency virus 1, UniProt P12497 P12497:1148-1435); experiment: inhibition; both activities 0.125
[4] = target: T2, HIV-1 integrase wild-type (IN1-288); experiment: inhibition; 3'-process column; strand transfer column 0.055; row misprinted T30745
[5] = target: T2, HIV-1 integrase wild-type (IN1-288); experiment: inhibition
[6] = target: T3, HIV-1 integrase IN1-212 (C-terminal deletion) (HIV-1, UniProt P04585 P04585:1148-1359); experiment: inhibition; disintegration assay, Mn2+, 30 C; settings: intramolecular G4
T3 chain: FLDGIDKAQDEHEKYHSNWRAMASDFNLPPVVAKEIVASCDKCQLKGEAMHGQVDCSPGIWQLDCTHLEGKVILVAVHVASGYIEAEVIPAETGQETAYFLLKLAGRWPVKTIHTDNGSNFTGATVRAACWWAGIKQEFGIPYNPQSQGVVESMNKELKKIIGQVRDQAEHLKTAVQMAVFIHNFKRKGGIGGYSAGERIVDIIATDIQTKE

[7] = target: T4, HIV-1 integrase wild-type (IN1-288) (Human immunodeficiency virus 1, UniProt P12497 P12497:1148-1435); experiment: inhibition; both activities 0.120; settings: intermolecular G4
[8] = target: T2, HIV-1 integrase wild-type (IN1-288); experiment: inhibition; both activities 0.120; row misprinted T30745
[9] = target: T4, HIV-1 integrase wild-type (IN1-288); experiment: inhibition; 3'-process column; strand transfer column 0.060 (headings appear swapped); settings: intermolecular G4
[10] = target: T2, HIV-1 integrase wild-type (IN1-288); experiment: inhibition; 3'-process column; strand transfer column 0.150

B1: I100-12 (ssDNA)
DNA: GTTGGGGGTTGTTGGTGGGGTGGTGG
modifications: PS all linkages, 3'-amine
Binder B1 has an IC50 [1] of 15 nM and a Ki [2] of 5 nM.

B2: T30748 (structured_DNA)
DNA: TGGGAGGTGGGTCTG
modifications: pPT (PS at first and last linkages)
B2 showed an IC50 [3] of 125 nM.

B3: T30743 (structured_DNA)
DNA: GTGGCGGGTGGGTGGGT
modifications: pPT
In the case of B3, the IC50 [4] is reported as 60 nM.

B4: T30699 (structured_DNA)
DNA: GTGGGTGGTGGGGTGGT
modifications: pPT (PS at first and last linkages)
B4 was tested, and the IC50 [5] was 50 nM.

B5: T30177 (AR177) (structured_DNA)
DNA: GTGGTGGGTGGGTGGGT
modifications: PS at the terminal 5' and 3' internucleoside linkages
With B5 the IC50 [6] was 600 nM.

B6: T30697 (structured_DNA)
DNA: GTGGTGGGGTGGTGGGT
modifications: pPT (PS at first and last linkages)
In the case of B6, the IC50 [5] is reported as 13 nM.

B7: T30571 (structured_DNA)
DNA: GTGGTGGGTGGGTGGGT
modifications: pPT; N5,N9,N13 = 5-bromo dU [n positions 5,9,13 = modified dU]
With B7 the IC50 [5] was 50 nM.

B8: T30702 (structured_DNA)
DNA: GTGGTGGGTGGGTGGGT
modifications: pPT; N5,N13 = C-5 propynyl dU [n positions 5,13 = modified dU]
B8 gave an IC50 [5] of 30 nM.

B9: 1174 (ssDNA)
DNA: GGGTGGGTGGGTGGGTGG
modifications: PS all linkages, 3'-amine
B9 showed an IC50 [1] of 15.4 nM and a Ki [2] of 15 nM.

B10: T30578 (structured_DNA)
DNA: GTGGTGGGTGGGTGGGT
modifications: pPT; N13 = 5-iodo dU [n positions 13 = modified dU]
B10 showed an IC50 [5] of 50 nM.

B11: T30678 (structured_DNA)
DNA: GTGGTGGGTGGGTTGGT
modifications: pPT (PS at first and last linkages)
Binder B11 has an IC50 [5] of 120 nM.

B12: T30661 (ssRNA)
RNA: GUGGUGGGUGGGUGGGU
modifications: pPT (PS at first and last linkages), RNA sugars
B12 gave an IC50 [5] of 84 nM.

B13: T30747B (structured_DNA)
DNA: TGGGAGGTGGGTCTG
modifications: all phosphodiester, DMT at 3' end
For B13, the IC50 [7] was 120 nM.

B14: T30673 (structured_DNA)
DNA: GTGGTTGGTGTGGTTGG
modifications: pPT (PS at first and last linkages)
Binder B14 has an IC50 [5] of 600 nM.

B15: T30744 (structured_DNA)
DNA: GTGGTGGGCGGGTGGGT
modifications: pPT
For B15, the IC50 [5] was 60 nM.

B16: T30701 (structured_DNA)
DNA: GTGGTGGGTGGGTGGGT
modifications: pPT; N13 = C-5 propynyl dU [n positions 13 = modified dU]
B16 was tested, and the IC50 [5] was 30 nM.

B17: T30698 (structured_DNA)
DNA: GTGGTGGGTGGGGTGGT
modifications: pPT (PS at first and last linkages)
For B17, the IC50 [5] was 16 nM.

B18: T30674 (structured_DNA)
DNA: GTGGTTGGTGTGGTTGGT
modifications: pPT (PS at first and last linkages)
B18 gave an IC50 [5] of 610 nM.

B19: T30754 (structured_DNA)
DNA: GCGGGGCTCCATGGGGGTCG
modifications: pPT (PS at first and last linkages)
Binder B19 has an IC50 [8] of 120 nM.

B20: S935833 (structured_DNA)
DNA: GCGGGGCTCCATGGGGGTCG
modifications: PS pattern g*c*gggc*t*c*c*a*tggggg*t*c*g (as printed in table footnote)
Binder B20 has an IC50 [9] of 45 nM.

B21: T30746 (structured_DNA)
DNA: GTGGCGGGCGGGCGGGT
modifications: pPT
In the case of B21, the IC50 [10] is reported as 150 nM.

B22: T30696 (structured_DNA)
DNA: GTGGGTGGTGGGTGGGT
modifications: pPT (PS at first and last linkages)
Work on B22 yielded an IC50 [5] of 13 nM.

B23: T30576 (structured_DNA)
DNA: GTGGTGGGTGGGTGGGT
modifications: pPT; N5 = 5-iodo dU [n positions 5 = modified dU]
For B23, the IC50 [5] was 50 nM.

B24: I100-00 (ssDNA)
DNA: GTTGGGGGTTGTTGGTGGGGTGGTGG
modifications: phosphodiester, 3'-propanolamine
Binder B24 has an IC50 [1] of 5000 nM and a Ki [2] of 370 nM.

B25: I100-21 (ssDNA)
DNA: GTGGTGGGTGGGTGGGTGGTGGGTGGTGGTTGTGGGTGGGTGGTG
modifications: PS all linkages, 3'-amine
B25 gave an IC50 [1] of 4 nM and a Ki [2] of 1 nM.

B26: I100-07 (ssDNA)
DNA: B25 DNA
modifications: phosphodiester, 3'-amine
With B26 the IC50 [1] was 2500 nM and the Ki [2] was 137 nM.

B27: 1232 random GATC (ssDNA)
DNA: GATCCATGTCAGTGACAC
modifications: PS all linkages, 3'-amine
In the case of B27, the IC50 [1] is reported as 45 nM and the Ki [2] is reported as 560 nM.

B28: T30700 (structured_DNA)
DNA: GTGGTGGGTGGGTGGGT
modifications: pPT; capital T = C-5 propynyl dU (position 5)
Binder B28 has an IC50 [5] of 40 nM.
